Measurements as given in patent publication US20190177419A1 (BERGEN TEKNOLOGIOVERFORING, published 2019).

T1: recombinant human Mer-Fc chimera (R&D Systems, Cat. no. 891-MR) (human, UniProt Q12866 21-505)
T1 construct: Bought reagent; also called rhMer-Fc; rhMer; not shown: Fc part (and any linker or tag) of the bought chimera; not described
T1 sequence: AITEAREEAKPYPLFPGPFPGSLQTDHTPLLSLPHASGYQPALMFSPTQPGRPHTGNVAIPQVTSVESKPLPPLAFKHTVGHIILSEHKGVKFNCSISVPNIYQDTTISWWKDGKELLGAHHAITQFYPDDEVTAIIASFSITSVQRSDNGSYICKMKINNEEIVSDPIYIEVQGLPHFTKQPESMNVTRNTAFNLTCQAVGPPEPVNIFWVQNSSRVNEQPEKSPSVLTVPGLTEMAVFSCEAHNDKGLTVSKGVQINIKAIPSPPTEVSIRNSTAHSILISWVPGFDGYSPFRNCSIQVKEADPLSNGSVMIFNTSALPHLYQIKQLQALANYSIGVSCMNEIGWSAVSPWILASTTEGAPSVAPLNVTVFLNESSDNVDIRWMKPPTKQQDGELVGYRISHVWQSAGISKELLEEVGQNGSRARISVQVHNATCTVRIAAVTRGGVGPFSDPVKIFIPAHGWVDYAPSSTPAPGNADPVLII

T2: recombinant human Tyro3/Dtk-Fc chimera (R&D Systems, Cat. no. 859-DK) (human, UniProt Q06418 41-429)
T2 construct: Bought reagent; also called rhTyro3/Dtk-Fc; rhTyro3; not shown: Fc part (and any linker or tag) of the bought chimera; not described
T2 sequence: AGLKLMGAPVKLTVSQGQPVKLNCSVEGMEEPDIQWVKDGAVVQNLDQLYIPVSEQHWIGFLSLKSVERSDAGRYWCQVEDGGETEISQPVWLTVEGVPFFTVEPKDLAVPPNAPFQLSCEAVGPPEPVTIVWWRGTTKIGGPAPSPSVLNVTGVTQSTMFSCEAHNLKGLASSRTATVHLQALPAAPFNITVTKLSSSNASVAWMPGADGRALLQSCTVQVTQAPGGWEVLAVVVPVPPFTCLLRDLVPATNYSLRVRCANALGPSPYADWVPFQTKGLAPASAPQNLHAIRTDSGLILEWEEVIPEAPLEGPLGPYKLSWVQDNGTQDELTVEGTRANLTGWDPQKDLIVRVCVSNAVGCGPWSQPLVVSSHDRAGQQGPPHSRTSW

T3: recombinant cyno-Axl-Fc (extracellular domain of cynomolgus monkey Axl fused to human Fc) (cynomolgus monkey (Macaca fascicularis), UniProt P30530 26-451 (human entry))
T3 construct: also called Axl from cynomolgus monkey; not shown: human Fc
T3 chain: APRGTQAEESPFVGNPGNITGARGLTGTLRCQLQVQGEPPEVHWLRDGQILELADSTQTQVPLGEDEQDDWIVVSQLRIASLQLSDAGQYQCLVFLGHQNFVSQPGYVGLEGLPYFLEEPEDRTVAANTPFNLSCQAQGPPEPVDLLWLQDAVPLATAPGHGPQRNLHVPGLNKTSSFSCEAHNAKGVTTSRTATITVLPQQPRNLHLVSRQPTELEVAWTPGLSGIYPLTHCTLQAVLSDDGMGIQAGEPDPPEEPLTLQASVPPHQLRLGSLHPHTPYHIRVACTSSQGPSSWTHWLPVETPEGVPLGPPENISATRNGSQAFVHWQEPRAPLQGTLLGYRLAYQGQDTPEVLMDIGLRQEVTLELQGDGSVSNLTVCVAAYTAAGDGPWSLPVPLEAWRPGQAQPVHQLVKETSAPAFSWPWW


Tests used:
[1] = molecular target: T4, recombinant human Axl-Fc chimera (R&D Systems, Cat. no. 154-AL) (human, UniProt P30530 26-451); assay: SPR, Biacore 3000, 25 C, rhAxl-Fc immobilised on CM5 (190 RU); half-life of the complex as ln2/koff
T4 construct: extracellular domain; Bought reagent; also called rhAxl-Fc; rhAxl; not shown: Fc part (and any linker or tag) of the bought chimera; not described
Description: (§1) The precise kinetic analysis was performed using BIA evaluation software and curve fitting according to 1:1 Langmuir binding model.

[2] = molecular target: T4, recombinant human Axl-Fc chimera (R&D …); assay: SPR, Biacore 3000, 25 C, rhAxl-Fc immobilised on CM5 (190 RU), antibody injected, 1:1 Langmuir model
Description: as §1

[3] = molecular target: T1, recombinant human Mer-Fc chimera (R&D …); assay: SPR (Biacore 3000), rhMer-Fc immobilised on a CM5 chip, antibody injected for 3 min [panel 10C9]
Description: (§2) All binding experiments were performed using Biacore 3000 instrument (GE Healthcare) at 25° C. Soluble recombinant antigens corresponding to the extracellular domains of members of the human TAM receptor family, Axl (rhAxl-Fc chimera; R&D Systems, Cat. no. 154-AL), Mer (rhMer-Fc chimera; R&D Systems, Cat. no. 891-MR) and Tyro3 (rhTyro3/Dtk-Fc chimera; R&D Systems, Cat. no. 859-DK) were immobilized on the surface of CM5 sensor chip using amine coupling at the surface density of 393.0, 303.6 and 364.0 resonance units (RU), respectively. The Biacore run was performed in an automatic mode using Binding to analysis wizard.

[4] = molecular target: T5, recombinant mouse Axl-Fc chimera (R&D Systems, Cat. no. 854-AX) (mouse, UniProt Q00993 19-445); assay: SPR (Biacore 3000), rmAxl-Fc immobilised on a CM5 chip, antibody injected for 3 min [panel 10C9]
T5 construct: Bought soluble reagent; also called rmAxl-Fc; rmAxl; not shown: Fc part (and any linker or tag) of the bought chimera; not described
T5 sequence (Q00993 other isoform, or with tags, fused parts or gaps mutant): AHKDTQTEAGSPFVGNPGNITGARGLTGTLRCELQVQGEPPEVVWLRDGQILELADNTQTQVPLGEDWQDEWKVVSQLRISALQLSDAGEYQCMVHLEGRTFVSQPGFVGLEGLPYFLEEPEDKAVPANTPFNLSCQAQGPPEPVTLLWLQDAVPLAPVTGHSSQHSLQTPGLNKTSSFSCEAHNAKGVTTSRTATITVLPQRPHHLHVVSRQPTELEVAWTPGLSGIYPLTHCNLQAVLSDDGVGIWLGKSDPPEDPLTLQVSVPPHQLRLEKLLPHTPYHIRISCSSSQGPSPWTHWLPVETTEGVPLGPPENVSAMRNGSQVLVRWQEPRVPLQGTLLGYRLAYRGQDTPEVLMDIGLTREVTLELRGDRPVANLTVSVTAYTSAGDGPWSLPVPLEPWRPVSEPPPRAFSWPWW
Description: (§3) The binding experiments were performed using Biacore 3000 instrument (GE Healthcare) at 25° C. The soluble recombinant antigens corresponding to human Axl (rhAxl-Fc chimera; R&D Systems, Cat. no. 154-AL), mouse Axl (rmAxl-Fc chimera; R&D Systems, R&D Systems; Cat. no. 854-AX) and human Tyro3 (rhTyro3/Dtk-Fc chimera; R&D Systems, Cat. no. 859-DK) were immobilized on the surface of CM5 sensor chip using amine coupling at the surface density of 1,308.0, 2,115.9 and 1,429.0 RU, respectively. The Biacore runs were performed in an automatic mode using Binding analysis wizard.

[5] = molecular target: T2, recombinant human Tyro3/Dtk-Fc chimera …; assay: SPR (Biacore 3000), rhTyro3/Dtk-Fc immobilised on a CM5 chip, antibody injected for 3 min [panel 10C9]
Description: as §2

[6] = molecular target: T6, human Axl receptor on cells (Axl-positive MDA-MB-231 cells; HeLa cells; Axl+ cells) (human, UniProt P30530 26-894); assay: flow cytometry on MDA-MB-231 cells, detection with APC-conjugated donkey anti-mouse IgG (H+L) F(ab')2
T6 construct: whole, on cells; Endogenous Axl of human cell lines; also called Axl-positive cells

[7] = molecular target: T3, recombinant cyno-Axl-Fc (extracellular …); assay: SPR (Biacore 3000), cyno-Axl-Fc immobilised on a CM5 chip, antibody injected at 10 µg/mL for 3 min, 5 min dissociation [panel 10C9]
Description: (§4) The sequence of Axl receptor from cynomolgus monkey (Macace fascicularis; SEQ ID NO.43) was retrieved from WO2009062690A1. Based on the sequence, recombinant extracellular domain of cyno-Axl was generated by transient expression in CHO cells as a fusion protein with human Fc. […] The binding experiments were performed using Biacore 3000 instrument (GE Healthcare) at 25° C. […] The Biacore runs were performed in an automatic mode using Binding analysis wizard.

[8] = molecular target: T6, human Axl receptor on cells …; assay: flow cytometry on MDA-MB-231 cells, detection with APC-conjugated donkey anti-human IgG (H+L) F(ab')2
Description: The cell staining was measured using Accuri C6 flow cytometer (BD Biosciences). MFI, geometric mean fluorescence intensity.
For flow cytometry, the adherent cells in culture were washed with PBS, detached by treatment with trypsin (0.25%) for 1 min and hitting culture dish for full detachment. Trypsin was quenched by adding into the tissue flask the complete medium followed by washing the cells with PBS. During the washing steps, the cells were collected by centrifugation at 200 g for 5 min. The antibody was diluted for total concentration in PBS containing 0.02% bovine serum albumin (BSA). Cell staining was performed using 200 μL of cell suspension comprising 10⁵ cells for 20 min at room temperature. The cell-bound antibodies were detected with APC-conjugated donkey anti-human or anti-mouse, respectively, IgG (H+L) F(ab′)₂ fragments (Jackson ImmunoResearch). After two washing steps with PBS/0.02% BSA, the cells were resuspended in 200 μL and kept on ice before analysis on Accuri C6 flow cytometer (BD Biosciences).

[9] = molecular target: T1, recombinant human Mer-Fc chimera (R&D …); assay: SPR (Biacore 3000), rhMer-Fc immobilised on a CM5 chip, antibody injected for 3 min [panel 10G5]
Description: as §2

[10] = molecular target: T5, recombinant mouse Axl-Fc chimera (R&D …); assay: SPR (Biacore 3000), rmAxl-Fc immobilised on a CM5 chip, antibody injected for 3 min [panel 10G5]
Description: as §3

[11] = molecular target: T2, recombinant human Tyro3/Dtk-Fc chimera …; assay: SPR (Biacore 3000), rhTyro3/Dtk-Fc immobilised on a CM5 chip, antibody injected for 3 min [panel 10G5]
Description: as §2

[12] = molecular target: T3, recombinant cyno-Axl-Fc (extracellular …); assay: SPR (Biacore 3000), cyno-Axl-Fc immobilised on a CM5 chip, antibody injected at 10 µg/mL for 3 min, 5 min dissociation [panel 10G5]
Description: as §4

Half-life (t1/2) [1] [min] | Kd [2] [nM] | koff [2] [s⁻¹] | kon [2] [M⁻¹ s⁻¹] | binding result [3] | binding result [4] | binding result [5] | EC50 (read off the curve) [6] [nM] | binding result [7] | EC50 (read off the curve) [8] [nM] | binding result [9] | binding result [10] | binding result [11] | binding result [12] | Binder
40 | 0.18 | 0.000289 | 1.61e+06 | no binding (tested: 10 µg/mL) | no binding (tested: 10 µg/mL) | no binding (tested: 10 µg/mL) | ~0.2 | binds | – | – | – | – | – | mouse monoclonal antibody 10C9 (from hybridoma UT-10C9-B9) (antibody, IgG2b, V domains shown, Whole mouse antibody purified from hybridoma supernatant; Possible N-glycosylation site (NFT) in CDR-H1; also called MAb 10C9) VH: QVQLQQPGPELVKPGASVKISCKTSDYNFTRYYIHWVKQRPGQGLEWIGWIYPGTGDSKYNEKFKGRATLTADTSSSTAYMQLSSQTSEDSAVYFCARNGNYWYFDVWGAGTAVTVSS VL: DIVMTQAAPSGPVTPGESVSISCRSSKSLLHSNGNTYLYWFLQRPGQSPQLLIYRMSNLASGVPDRFSGSGSGTAFTLRISRVEAEDVGIYYCMQHREYPFTFGGGTKLEIK
52.8 | 0.102 | 0.000219 | 2.16e+06 | – | – | – | – | – | ~0.2 | – | – | – | – | chimeric (mouse variable/human constant) IgG1 antibody c10C9 (antibody, V domains shown, 10C9 VH and VL joined in frame to human IgG1 and C-kappa constant domains, made in CHO cells; also called chimeric 10C9; not shown: constant domains of the human IgG1 heavy chain; constant domain of the human light (C-kappa) chain) VH: QVQLQQPGPELVKPGASVKISCKTSDYNFTRYYIHWVKQRPGQGLEWIGWIYPGTGDSKYNEKFKGRATLTADTSSSTAYMQLSSQTSEDSAVYFCARNGNYWYFDVWGAGTAVTVSS VL: DIVMTQAAPSGPVTPGESVSISCRSSKSLLHSNGNTYLYWFLQRPGQSPQLLIYRMSNLASGVPDRFSGSGSGTAFTLRISRVEAEDVGIYYCMQHREYPFTFGGGTKLEIK
26.3 | 0.53 | 0.000439 | 829000 | – | – | – | – | – | – | no binding (tested: 10 µg/mL) | no binding (tested: 10 µg/mL) | no binding (tested: 10 µg/mL) | binds | mouse monoclonal antibody 10G5 (from hybridoma WR-10G5-E5) (antibody, IgG1, V domains shown, Whole mouse antibody purified from hybridoma supernatant; also called MAb 10G5) VH: QVQLQQSGAELVRPGASVKLSCKASGYSFTDFYINWVRQRPGQGLEWIARIFPGGDNTYYNEKFKGKATLTAEESSSTAYIQLSSLTSEDSAVYFCARRGLYYAMDYWGQGISVTVSS VL: DVLMTQTPLSLPVSLGDQASISCRSSQSLVHSNGIPYLHWYLQKPGQSPKLLIYRVSNRFSGVPDRFSGSGSGTDFTLKISRVEAEDLGVYFCSQGTHVPPTFGGGTKLEIK
68.4 | 0.103 | 0.000169 | 1.64e+06 | – | – | – | – | – | ~0.2 | – | – | – | – | chimeric (mouse variable/human constant) IgG1 antibody c10G5 (antibody, V domains shown, 10G5 VH and VL joined in frame to human IgG1 and C-kappa constant domains, made in CHO cells; also called chimeric 10G5; not shown: constant domains of the human IgG1 heavy chain; constant domain of the human light (C-kappa) chain) VH: QVQLQQSGAELVRPGASVKLSCKASGYSFTDFYINWVRQRPGQGLEWIARIFPGGDNTYYNEKFKGKATLTAEESSSTAYIQLSSLTSEDSAVYFCARRGLYYAMDYWGQGISVTVSS VL: DVLMTQTPLSLPVSLGDQASISCRSSQSLVHSNGIPYLHWYLQKPGQSPKLLIYRVSNRFSGVPDRFSGSGSGTDFTLKISRVEAEDLGVYFCSQGTHVPPTFGGGTKLEIK
